Measurements reported in patent US20240270821A1, “GIP/GLP1/GCG TRI-RECEPTOR AGONISTS AND USES THEREOF” (priority 2023, published 2024).
Starred links: 1 amine or outer side, 2 acyl side, 3 side chain; linkers in the order of their positions; H or OH if unused. Non-standard residues stand in square brackets, D forms with d. Groups on a side chain read outwards from the residue. No end group written: not given here. *: point of attachment. C20 diacid = O=C(O)CCCCCCCCCCCCCCCCCCC(=O)*; γGlu = O=C(O)[C@H](CCC(=O)[*:2])N[*:1]; αMeL = CC(C)C[C@](C)(N)C(=O)O; AEEA = NCCOCCOCC(=O)O; Aib = CC(C)(N)C(=O)O

T1: human GIP receptor (human) (UniProt P48546)
T1 sequence (looked up): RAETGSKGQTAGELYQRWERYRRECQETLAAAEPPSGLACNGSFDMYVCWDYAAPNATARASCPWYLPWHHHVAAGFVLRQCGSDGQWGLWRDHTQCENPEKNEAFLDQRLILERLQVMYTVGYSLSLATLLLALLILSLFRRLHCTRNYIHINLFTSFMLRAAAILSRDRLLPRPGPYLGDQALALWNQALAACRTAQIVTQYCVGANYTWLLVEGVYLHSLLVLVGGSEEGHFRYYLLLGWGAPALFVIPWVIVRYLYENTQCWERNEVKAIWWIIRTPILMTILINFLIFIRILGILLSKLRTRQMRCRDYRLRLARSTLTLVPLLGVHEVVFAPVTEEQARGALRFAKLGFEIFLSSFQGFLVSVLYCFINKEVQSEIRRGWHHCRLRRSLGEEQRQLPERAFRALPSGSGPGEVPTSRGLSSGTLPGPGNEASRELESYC


What was measured:
Assay in all cases: cell-based or functional assay
[1] = target: hGLP-1R (Homo sapiens, UniProt P43220)
[2] = target: T1, human GIP receptor (human)
[3] = target: human glucagon receptor (human) (UniProt P47871)
human glucagon receptor (human), sequence (P47871 26-477): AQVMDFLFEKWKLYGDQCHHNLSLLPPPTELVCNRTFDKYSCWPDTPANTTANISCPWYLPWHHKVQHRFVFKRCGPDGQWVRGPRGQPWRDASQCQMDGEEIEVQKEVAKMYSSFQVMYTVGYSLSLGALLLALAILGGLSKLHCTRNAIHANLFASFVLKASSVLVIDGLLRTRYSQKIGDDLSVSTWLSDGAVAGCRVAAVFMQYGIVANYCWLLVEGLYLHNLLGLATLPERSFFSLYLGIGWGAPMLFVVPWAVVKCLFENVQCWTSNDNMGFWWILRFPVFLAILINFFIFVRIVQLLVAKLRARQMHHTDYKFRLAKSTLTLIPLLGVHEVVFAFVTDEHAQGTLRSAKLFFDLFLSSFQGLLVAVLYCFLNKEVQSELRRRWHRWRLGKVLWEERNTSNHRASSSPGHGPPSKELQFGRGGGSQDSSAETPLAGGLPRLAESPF

hGLP-1R, sequence (P43220 24-463): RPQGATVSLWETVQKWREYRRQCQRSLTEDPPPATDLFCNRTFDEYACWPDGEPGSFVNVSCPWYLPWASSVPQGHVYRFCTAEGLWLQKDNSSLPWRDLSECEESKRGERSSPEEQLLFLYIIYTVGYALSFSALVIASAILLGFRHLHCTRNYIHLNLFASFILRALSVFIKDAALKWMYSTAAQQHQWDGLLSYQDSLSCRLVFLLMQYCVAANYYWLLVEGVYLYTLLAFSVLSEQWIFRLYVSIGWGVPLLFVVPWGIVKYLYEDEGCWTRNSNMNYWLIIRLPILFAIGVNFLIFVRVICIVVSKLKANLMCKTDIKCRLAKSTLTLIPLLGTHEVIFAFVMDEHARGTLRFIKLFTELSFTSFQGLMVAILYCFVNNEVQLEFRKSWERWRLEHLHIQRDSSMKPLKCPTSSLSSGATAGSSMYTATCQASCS

Binder | Relative cAMP EC50 [1] [nM] | Relative cAMP EC50 [2] [nM] | Relative cAMP EC50 [3] [nM] | cAMP Rel EC50 (1% HSA) [1] [nM] | cAMP Rel EC50 (1% HSA) [2] [nM] | cAMP Rel EC50 (1% HSA) [3] [nM] | Relative cAMP EC50, nM (0.1% casein) [1] [nM] | Relative cAMP EC50, nM (0.1% casein) [2] [nM] | Relative cAMP EC50, nM (0.1% casein) [3] [nM]
YXQGTXTSDXSILLDKKAQXAFIEYLEEGGPSSGAPPPEGTE (synthetic construct; SITE 2: note = 2-Aminoisobutyric Acid; SITE 6: note = alpha-methyl-2-fluoro-L-phenylalanine; SITE 10: note = 3-(4-Pyridyl)-L-alanine; SITE 17: note = Lysine is chemically modified through conjugation of the epsilon-amino group of the Lysine side chain with (gamma-Glu)2-CO-(CH2)1) [Example 659 (SEQ ID NO: 665)] | 1.31 | 0.0673 | 5.89 |  |  |  |  |  | 
Y[Aib]QGTFTSDYSI[αMeL]LDKQAAK([AEEA-AEEA-γGlu-C20 diacid])QFVNWLLA[Aib]GPSSGEPPPSEG-NH2 [Example 325] | 1.56 | 0.351 | 2.43 | 371 | 82.7 | 774 |  |  | 
Y[Aib]QGTFTSDYSI[αMeL]LDKQAAK([AEEA-AEEA-γGlu-C20 diacid])QFIEWLIEGGPSSGEPPPGAE-NH2 [Example 319] | 0.947 | 0.485 | 4.81 | 119 | 60.1 | 1650 |  |  | 
Y[Aib]QGTFTSDYSI[αMeL]LDKIAAK([AEEA-AEEA-γGlu-C20 diacid])QFVEYLIAGGPSSGEPPPSEG-NH2 [Example 312] | 2.66 | 0.504 | 7.5 | 589 | 97.7 | 4070 |  |  | 
Y[Aib]QGTFTSDYSKLLDKK([AEEA-γGlu-C20 diacid])AQ[Aib]AFVQWLIEGGPSSGEPPPSEG-NH2 [Example 316] | 0.362 | 0.259 | 5.22 | 78.7 | 102 | 2090 |  |  | 
Y[Aib]QGTFTSDYSI[αMeL]LDKK([AEEA-γGlu-C20 diacid])AQRAFIEYLLEGGPSSGEPPPSG-NH2 (N-terminus assumed; SMILES CC[C@H](C)[C@H](NC(=O)[C@H](Cc1ccccc1)NC(=O)[C@H](C)NC(=O)[C@H](CCCNC(=N)N)NC(=O)[C@H](CCC(N)=O)NC(=O)[C@H](C)NC(=O)[C@H](CCCCNC(=O)COCCOCCNC(=O)CC[C@H](NC(=O)CCCCCCCCCCCCCCCCCCC(=O)O)C(=O)O)NC(=O)[C@H](CCCCN)NC(=O)[C@H](CC(=O)O)NC(=O)[C@H](CC(C)C)NC(=O)[C@](C)(CC(C)C)NC(=O)[C@@H](NC(=O)[C@H](CO)NC(=O)[C@H](Cc1ccc(O)cc1)NC(=O)[C@H](CC(=O)O)NC(=O)[C@H](CO)NC(=O)[C@@H](NC(=O)[C@H](Cc1ccccc1)NC(=O)[C@@H](NC(=O)CNC(=O)[C@H](CCC(N)=O)NC(=O)C(C)(C)NC(=O)[C@@H](N)Cc1ccc(O)cc1)[C@@H](C)O)[C@@H](C)O)[C@@H](C)CC)C(=O)N[C@@H](CCC(=O)O)C(=O)N[C@@H](Cc1ccc(O)cc1)C(=O)N[C@@H](CC(C)C)C(=O)N[C@@H](CC(C)C)C(=O)N[C@@H](CCC(=O)O)C(=O)NCC(=O)NCC(=O)N1CCC[C@H]1C(=O)N[C@@H](CO)C(=O)N[C@@H](CO)C(=O)NCC(=O)N[C@@H](CCC(=O)O)C(=O)N1CCC[C@H]1C(=O)N1CCC[C@H]1C(=O)N1CCC[C@H]1C(=O)N[C@@H](CO)C(=O)NCC(N)=O) [Example 313] | 0.304 | 0.49 | 4.11 | 135 | 86.4 | 3290 |  |  | 
YXQGTXTSDXSILLDKKAQXAFIEYLEEGGPSSGAPPPEGTGE (synthetic construct; SITE 2: note = 2-Aminoisobutyric Acid; SITE 6: note = alpha-methyl-2-fluoro-L-phenylalanine; SITE 10: note = 3-(4-Pyridyl)-L-alanine; SITE 17: note = Lysine is chemically modified through conjugation of the epsilon-amino group of the Lysine side chain with (gamma-Glu)2-CO-(CH2)1) [Example 660 (SEQ ID NO: 666)] | 1.27 | 0.0646 | 7.38 |  |  |  |  |  | 
YXQGTXTSDXSILLDKKAQXAFIEYLXEGGPSSGAPPPSGTGE (synthetic construct; SITE 2: note = 2-Aminoisobutyric Acid; SITE 6: note = alpha-methyl-2-fluoro-L-phenylalanine; SITE 10: note = 3-(4-Pyridyl)-L-alanine; SITE 17: note = Lysine is chemically modified through conjugation of the epsilon-amino group of the Lysine side chain with (2-[2-(2-Amino-ethoxy))) [Example 663 (SEQ ID NO: 669)] | 1.29 | 0.0893 | 1.95 |  |  |  |  |  | 
YXQGTXTSDXSILLDKKAQXAFIEYLEEGGPSSGAPPPSGTGE (synthetic construct; SITE 2: note = 2-Aminoisobutyric Acid; SITE 6: note = alpha-methyl-2-fluoro-L-phenylalanine; SITE 10: note = 3-(4-Pyridyl)-L-alanine; SITE 17: note = Lysine is chemically modified through conjugation of the epsilon-amino group of the Lysine side chain with (2-[2-(2-Amino-ethoxy))) [Example 662 (SEQ ID NO: 668)] | 0.946 | 0.0704 | 4.81 |  |  |  |  |  | 
YXQGTXTSDXSILLDKKAQXAFIEYLXEGGPSSGAPPPSGTGE (synthetic construct; SITE 2: note = 2-Aminoisobutyric Acid; SITE 6: note = alpha-methyl-2-fluoro-L-phenylalanine; SITE 10: note = 3-(4-Pyridyl)-L-alanine; SITE 17: note = Lysine is chemically modified through conjugation of the epsilon-amino group of the Lysine side chain with (gamma-Glu)2-CO-(CH2)1) [Example 661 (SEQ ID NO: 667)] | 1.13 | 0.0665 | 1.78 |  |  |  |  |  | 
YXQGTXTSDXSILLDXIAQXAFIKYLEEGGPSSGAPPPS (synthetic construct; SITE 2: note = 2-Aminoisobutyric Acid; SITE 6: note = alpha-methyl-2-fluoro-L-phenylalanine; SITE 10: note = 3-(4-Pyridyl)-L-alanine; SITE 16: note = L-ornithine; SITE 20: note = 2-Aminoisobutyric Acid; SITE 24: note = Lysine is chemically modified through conjugation of the eps) [Example 454] |  |  |  |  |  |  | 0.821 | 0.0154 | 9.11
YXQGTXTSDYSIXLDKIAQXAFIKYLEEGGPSSGAPPPS (synthetic construct; SITE 2: note = 2-Aminoisobutyric Acid; SITE 6: note = alpha-methyl-2-fluoro-L-phenylalanine; SITE 13: note = alpha-methyl-leucine; SITE 20: note = 2-Aminoisobutyric Acid; SITE 24: note = Lysine is chemically modified through conjugation of the epsilon-amino group of the Lysine s) [Example 455] |  |  |  |  |  |  | 0.49 | 0.0182 | 4.36
YXQGTFTSDFSXXLDKKAQXAFIEXLLEGGPSSGAPPPGGS (synthetic construct; SITE 2: note = 2-Aminoisobutyric Acid; SITE 12: note = L-ornithine; SITE 13: note = alpha-methyl-leucine; SITE 17: note = Lysine is chemically modified through conjugation of the epsilon-amino group of the Lysine side chain with (2-[2-(2-Amino-ethoxy)-ethoxy]-acetyl)-(gamma-Glu)) [Example 496] |  |  |  |  |  |  | 9.69 | 0.387 | 8.25
Y[Aib]QGTFTSDYSI[αMeL]LDKQAAK([AEEA-AEEA-γGlu-C20 diacid])QFIEWLIEGGPSSGEPPPGEG-NH2 [Example 318] | 0.698 | 0.378 | 5.03 | 111 | 52.8 | 1970 |  |  | 
